# Assay results reported in doi:10.1101/2020.12.03.409318 (bioRxiv, 2020).
# Molecular target: RBD-mFc (Sino Biologicals) (SARS-CoV-2, wild type (Wuhan-Hu-1 …, UniProt P0DTC2))
# Assay: BLI
binder,measurement,value
"STE90-C11 Fab (Fab, V domains shown) VH: QVQLVESGGGLVQPGGSLRLSCAASGLTVSSNYMSWVRQAPGKGLEWVSVIYSGGSTYYADSVKGRFTISRDDSKNTLYLQMNSLRAEDTAVYYCARDVADAFDIWGQGTMVTVSS VL: DIVMTQSPSFLSASVGDRVTITCRASQGISSYLAWYQQKPGKAPKLLIYAASTLQSGVPSRFSGSGSGTEFTLTISSLQPEDFATYYCQQLNSYPPFTFGPGTKVDIK",Kd,8.1 nM
